Test results published in publication PMC10998906.

Legend:
[1] = target: HA GCN4 (NL03 HA fused to a GCN4 trimerization domain) (influenza A virus A/Netherlands/213/2003(H3N2)); assay: negative-stain EM
[2] = target: HA GCN4 (NL03 HA fused to a GCN4 trimerization domain) (influenza A virus A/Netherlands/213/2003(H3N2)); assay: SEC

“HA GCN4 (NL03 HA fused to a GCN4 trimerization domain) (domain or fragment)” showed a stoichiometry N [1] of 3 and a stoichiometry N [2] of 3.
